We go through five molecules from US20130064788A1 (ELEVEN BIOTHERAPEUTICS, published 2013).

First the molecules themselves.
B4: IL-17RC extracellular domain (receptor)
chain: LERLVGPQDATHCSPVSLEPWGDEERLRVQFLAQQSLSLAPVTAATARTALSGLSGADGRREERGRGKSWVCLSLGGSGNTEPQKKGLSCRLWDSDILCLPGDIVPAPGPVLAPTHLQTELVLRCQKETDCDLCLRVAVHLAVHGHWEEPEDEEKFGGAADSGVEEPRNASLQAQVVLSFQAYPTARCVLLEVQVPAALVQFGQSVGSVVYDCFEAALGSEVRIWSYTQPRYEKELNHTQQLPDCRGLEVWNSIPSCWALPWLNVSADGDNVHLVLNVSEEQHFGLSLYWNQVQGPPKPRWHKNLTGPQIITLNHTDLVPCLCIQVWPLEPDSVRTNICPFREDPRAHQNLWQAARLQLLTLQSWLLDAPCSLPAEAALCWRAPGGDPCQPLVPPLSWENVTVDKVLEFPLLKGHPNLCVQVNSSEKLQLQECLWADSLGPLKDDVLLLETRGPQDNRSLCALEPSGCTSLPSKASTRAARLGEYLLQDLQSGQCLQLWDDDLGALWACPMDKYIHKR
notes: Expressed in 293S GnTI- cells with and without a C-terminal BirA tag; An additional C-terminal Fc tag was cleaved by 3C protease

Experiment [1] has as its target T1, pre-assembled IL-17RB-IL-25 complex (IL-25 captured by immobilised IL-17RB) (human, UniProt Q9NRM6 18-292; Q9H293 33-177, C-terminal biotin on BirA tag).
T1 construct: One receptor and one IL-25 dimer on the SPR chip
T1 sequence 1: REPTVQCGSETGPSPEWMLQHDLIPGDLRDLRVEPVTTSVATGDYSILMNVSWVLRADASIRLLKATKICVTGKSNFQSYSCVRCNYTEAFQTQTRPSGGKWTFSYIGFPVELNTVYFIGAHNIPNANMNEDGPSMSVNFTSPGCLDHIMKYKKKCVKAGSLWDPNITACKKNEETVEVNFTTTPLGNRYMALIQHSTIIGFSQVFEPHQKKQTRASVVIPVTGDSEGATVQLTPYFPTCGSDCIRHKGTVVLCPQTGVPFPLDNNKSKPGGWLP
T1 sequence 2: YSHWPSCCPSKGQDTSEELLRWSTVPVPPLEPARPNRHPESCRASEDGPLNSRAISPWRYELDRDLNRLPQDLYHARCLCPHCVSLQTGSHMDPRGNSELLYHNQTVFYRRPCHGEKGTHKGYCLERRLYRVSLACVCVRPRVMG
The experiment is described as follows: SPR, Biacore T100; second receptor injected over IL-25 captured by immobilised IL-17RB. Here is the method: (§1) IL-17RA has been implicated in IL-17E (also known as IL-25) signaling together with IL-17RB (23). IL-25 promotes Th2 inflammatory responses and shares approximately ˜20% identity with IL-17A and IL-17F. […] We hypothesized that IL-17RA may only bind IL-25 once IL-25 is captured by IL-17RB. To test this hypothesis, we immobilized IL-17RB on an SPR chip, captured IL-25 and measured the affinity of IL-17RA for the IL-17RB-IL-25 complex. […] At concentrations up to 50 μM, no interaction could be observed between IL-17RA and IL-25, or between the IL-17RB-IL-25 complex and a second IL-17RB molecule.
(§2) Binding affinities were calculated via surface plasmon resonance (SPR) on a BIACORE® T100 (GE Healthcare). C-terminally biotinylated IL-17 receptors were coupled to immobilized streptavidin on either an SA or CM4-sensor chip (GE Healthcare). An irrelevant, biotinylated protein was captured at equivalent immobilization densities to control flow cells. To measure the second receptor binding interaction, the cytokine was first captured to the immobilized receptor, followed by the second receptor injection. Low coupling densities (200-400 RU) and excess cytokine concentrations were used to optimize the number of cytokine homodimers bound to a single receptor. […] Data was analyzed using BIACORE® T100 evaluation software Version 2.0 (GE Healthcare). […]
For orientation: Surface plasmon resonance follows binding to a sensor surface in real time, without labels.

Experiment [2] concerns the target T2, human IL-17RA extracellular domain (ECD) (human, UniProt Q96F46 32-317).
T2 construct: For SPR it was made with and without a C-terminal BirA ligase tag: the biotinylated form was immobilised and the other was injected; For the crystal it was treated with endoglycosidase H and lysine-methylated; also called IL-17RA ECD; IL-17RA ectodomain
T2 sequence: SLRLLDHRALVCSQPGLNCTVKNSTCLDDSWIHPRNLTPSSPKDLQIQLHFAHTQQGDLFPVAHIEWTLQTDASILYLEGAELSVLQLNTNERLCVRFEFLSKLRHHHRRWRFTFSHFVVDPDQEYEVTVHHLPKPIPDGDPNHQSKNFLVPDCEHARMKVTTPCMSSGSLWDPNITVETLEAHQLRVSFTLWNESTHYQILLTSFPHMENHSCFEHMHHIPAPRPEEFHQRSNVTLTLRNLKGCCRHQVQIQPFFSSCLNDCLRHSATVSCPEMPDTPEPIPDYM
The experiment is described as follows: plate binding assay to the soluble extracellular domain of IL-17RA.

The target in experiment [3] is T2, human IL-17RA extracellular domain (ECD). Nature of the experiment: SPR, Biacore T100; biotinylated receptor on streptavidin chip, cytokine injected. The source says:
(§3) Whilst others have reported the binding affinities of IL-17RA and IL-17RC for IL-17A and IL-17F (7, 22), we considered it pertinent to assess the binding affinity of the second receptor-binding site. The strategy was to immobilize one receptor on the SPR chip at a low coupling density in order to minimize possible homo-dimerization (e.g. cross-linking) of the receptors on the chip. The dimeric IL-17 cytokine was then captured by this receptor so that each receptor would be bound to one dimeric IL-17 ligand, leaving an exposed and accessible second receptor-binding site. The second receptor was subsequently passed over the preformed receptor-cytokine complexes to measure the affinity of the second receptor-binding event. In this fashion, the complex was assembled in a stepwise manner and each of the binding affinities was measured (FIG. 3).
(§4) Binding affinities were calculated via surface plasmon resonance (SPR) on a BIACORE® T100 (GE Healthcare). C-terminally biotinylated IL-17 receptors were coupled to immobilized streptavidin on either an SA or CM4-sensor chip (GE Healthcare). An irrelevant, biotinylated protein was captured at equivalent immobilization densities to control flow cells. […] Data was analyzed using BIACORE® T100 evaluation software Version 2.0 (GE Healthcare). […]

In experiment [4] the target is B4. Described as above.
From the text: as §3, §4

Experiment [5] addresses T3, pre-assembled IL-17RC-IL-17A complex (IL-17A captured by immobilised IL-17RC) (human, UniProt Q8NAC3 21-538; Q16552 25-155, C-terminal biotin on BirA tag).
T3 construct: One receptor and one IL-17A dimer on the SPR chip; also called existing IL-17RC-IL-17A complex
T3 sequence 1: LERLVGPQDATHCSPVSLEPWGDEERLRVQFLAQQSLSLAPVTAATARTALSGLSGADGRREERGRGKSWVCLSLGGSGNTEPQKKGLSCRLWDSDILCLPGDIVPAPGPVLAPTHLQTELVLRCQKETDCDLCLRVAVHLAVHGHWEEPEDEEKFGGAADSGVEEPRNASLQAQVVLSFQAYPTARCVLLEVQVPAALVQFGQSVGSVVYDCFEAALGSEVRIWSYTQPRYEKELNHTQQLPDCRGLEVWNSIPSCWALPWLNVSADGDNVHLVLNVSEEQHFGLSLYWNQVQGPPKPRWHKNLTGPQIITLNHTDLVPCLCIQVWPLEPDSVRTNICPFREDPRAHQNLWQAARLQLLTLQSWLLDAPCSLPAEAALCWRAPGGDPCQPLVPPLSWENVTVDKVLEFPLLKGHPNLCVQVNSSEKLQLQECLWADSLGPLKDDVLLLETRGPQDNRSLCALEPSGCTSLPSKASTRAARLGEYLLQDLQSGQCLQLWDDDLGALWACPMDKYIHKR
T3 sequence 2: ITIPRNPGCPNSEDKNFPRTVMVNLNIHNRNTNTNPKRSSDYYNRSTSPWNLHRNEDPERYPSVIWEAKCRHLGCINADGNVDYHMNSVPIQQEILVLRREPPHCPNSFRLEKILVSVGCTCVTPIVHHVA
Nature of the experiment: SPR; second receptor injected over IL-17A captured by immobilised IL-17RC.
From the text: as §3, §4

Experiment [6] addresses T2, human IL-17RA extracellular domain (ECD). The experiment is described as follows: SPR, Biacore T100. Here is the method:
as §1, §2

Some results are limits rather than exact numbers.

B1: IL-17RB extracellular domain (receptor)
chain: REPTVQCGSETGPSPEWMLQHDLIPGDLRDLRVEPVTTSVATGDYSILMNVSWVLRADASIRLLKATKICVTGKSNFQSYSCVRCNYTEAFQTQTRPSGGKWTFSYIGFPVELNTVYFIGAHNIPNANMNEDGPSMSVNFTSPGCLDHIMKYKKKCVKAGSLWDPNITACKKNEETVEVNFTTTPLGNRYMALIQHSTIIGFSQVFEPHQKKQTRASVVIPVTGDSEGATVQLTPYFPTCGSDCIRHKGTVVLCPQTGVPFPLDNNKSKPGGWLP
notes: Expressed with and without a C-terminal BirA tag
On to B1, for which the binding result in experiment [1] is “no binding (tested: up to 50 µM)”.

B2: mutant single-chain IL-17A (R47E, S65K subunit - (G4S)6 linker - N89A, C-terminally truncated subunit - His tag) (designed binder)
chain: GITIPRNPGCPNSEDKNFPRTVMVNLNIHNRNTNTNPKRSSDYYNESTSPWNLHRNEDPERYPKVIWEAKCRHLGCINADGNVDYHMNSVPIQQEILVLRREPPHCPNSFRLEKILVSVGCTCVTPIVHHVASGGGGSGGGGSGGGGSGGGGSGGGGSGGGGSGITIPRNPGCPNSEDKNFPRTVMVNLNIHNRNTNTNPKRSSDYYNRSTSPWNLHRNEDPERYPSVIWEAKCRHLGCINADGNVDYHMASVPIQQEILVLRREPPHCPNSFRLEKILVSVGCTCVTPASHHHHHH
notes: also called sc17A-DN; mutant single-chain IL-17A protein
B2: the “affinity relative to wild-type IL-17A (factor)” value in experiment [2] is not above 4 fold.

B3: IL-17F homodimer (ligand, not shown: small tags and cut ends)
chain: RKIPKVGHTFFQKPESCPPVPGGSMKLDIGIINENQRVSMSRNIESRSTSPWNYTVTWDPNRYPSEVVQAQCRNLGCINAQGKEDISMNSVPIQQETLVVRRKHQGCSVSFQLEKVLVTVGCTCVTPVIHHVQ
notes: Printed as full length IL-17F with a C-terminal hexa-His tag, secreted by High Five insect cells; It is a disulfide-linked homodimer; also called IL-17F/F
Take B3: the Kd (in general, the free concentration of one partner at which half of the binding sites on the other are occupied at equilibrium, for simple one-to-one binding) in experiment [3] was 292 nM; in experiment [4] it was 4.4 nM. Turning to B4, the Kd in experiment [5] was 8000 nM.

B5: IL-25 (IL-17E) (ligand)
chain: YSHWPSCCPSKGQDTSEELLRWSTVPVPPLEPARPNRHPESCRASEDGPLNSRAISPWRYELDRDLNRLPQDLYHARCLCPHCVSLQTGSHMDPRGNSELLYHNQTVFYRRPCHGEKGTHKGYCLERRLYRVSLACVCVRPRVMG
notes: Expressed by High Five cells with a C-terminal hexa-His tag; It is treated as a dimeric cytokine in the SPR scheme; not shown: C-terminal hexa-His tag
Regarding B5, the binding result in experiment [6] was “no binding (tested: up to 50 µM)”.
